For test [1], the target named is N-acetylneuraminate lyase from Aliivibrio salmonicida LFI1238, construct with C-terminal His6-tag (Aliivibrio salmonicida LFI1238). Description: crystal structure; crystals from 25% PEG 1.5 K and 20% glycerol; space group I222, one molecule in the asymmetric unit; tetramer generated by crystallographic symmetry; 1.65 A.
In test [2] the target is N-acetylneuraminate lyase from Aliivibrio salmonicida LFI1238, construct with TEV-cleavable N-terminal His6-tag (Aliivibrio salmonicida LFI1238). The experiment in a line: SEC; Superdex 200 prep grade HiLoad 16/60 in 50 mM Tris-HCl pH 7.5, 500 mM NaCl, 5 mM beta-ME, 10% glycerol; room temperature. (In general: Size exclusion chromatography separates by hydrodynamic size, large species first.)

Test [3] has the same target. The experiment in a line: native gel or EMSA; native PAGE of purified AsNAL (2.75 ug) beside NativeMark unstained protein standard. For orientation: In EMSA bound probe runs differently from free probe, usually more slowly.

By stoichiometry N is commonly meant the number of molecules, sites or subunits per partner or assembly. “N-acetylneuraminate lyase from Aliivibrio salmonicida LFI1238, construct with C-terminal His6-tag (enzyme)”: in test [1], the stoichiometry N was found to be 4.

Consider “N-acetylneuraminate lyase from Aliivibrio salmonicida LFI1238, construct with TEV-cleavable N-terminal His6-tag (enzyme)”, for which the stoichiometry N in test [2] and in test [3] was 4 throughout.

Values taken from paper PMC6559660.
